Data reported in article PMC2770678 (Nucleic Acids Research, 2009).

Molecular target: T1, P. furiosus AP endonuclease (PfuAPE), PF0258 gene product, His-tagged recombinant (Pyrococcus furiosus, UniProt Q8U437 1-281)
T1 sequence (looked up): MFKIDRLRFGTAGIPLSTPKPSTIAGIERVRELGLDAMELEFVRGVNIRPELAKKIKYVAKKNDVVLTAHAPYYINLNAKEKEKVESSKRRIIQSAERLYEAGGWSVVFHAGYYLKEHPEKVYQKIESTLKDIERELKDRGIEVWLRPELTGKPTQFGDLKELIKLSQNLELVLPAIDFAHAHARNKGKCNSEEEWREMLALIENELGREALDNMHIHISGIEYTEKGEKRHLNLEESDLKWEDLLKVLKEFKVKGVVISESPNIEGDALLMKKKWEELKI
Assay: SPR

B1: P. furiosus proliferating cell nuclear antigen (PfuPCNA), recombinant wild type (natural protein, Pyrococcus furiosus, UniProt O73947 1-249, looked up)
chain: MPFEIVFEGAKEFAQLIDTASKLIDEAAFKVTEDGISMRAMDPSRVVLIDLNLPSSIFSKYEVVEPETIGVNMDHLKKILKRGKAKDTLILKKGEENFLEITIQGTATRTFRVPLIDVEEMEVDLPELPFTAKVVVLGEVLKDAVKDASLVSDSIKFIARENEFIMKAEGETQEVEIKLTLEDEGLLDIEVQEETKSAYGVSYLSDMVKGLGKADEVTIKFGNEMPMQMEYYIRDEGRLTFLLAPRVEE
Kd: 1000 nM
